# Positions count from the first letter of the chain named. Numbers in names are those of the source.
# B1: His-DDX3X^168-582: DDX3X helicase core (aa 168–582), 6× histidine tag (protein, UniProt O00571 168-582, looked up, fragment)
# chain: VEATGNNCPPHIESFSDVEMGEIIMGNIELTRYTRPTPVQKHAIPIIKEKRDLMACAQTGSGKTAAFLLPILSQIYSDGPGEALRAMKENGRYGRRKQYPISLVLAPTRELAVQIYEEARKFSYRSRVRPCVVYGGADIGQQIRDLERGCHLLVATPGRLVDMMERGKIGLDFCKYLVLDEADRMLDMGFEPQIRRIVEQDTMPPKGVRHTMMFSATFPKEIQMLARDFLDEYIFLAVGRVGSTSENITQKVVWVEESDKRSFLLDLLNATGKDSLTLVFVETKKGADSLEDFLYHEGYACTSIHGDRSQRDREEALHQFRSGKSPILVATAVAARGLDISNVKHVINFDLPSDIEEYVHRIGRTGRVGNLGLATSFFNERNINITKDLLDLLVEAKQEVPSWLENMAYEHHYKG
# modifications: N-terminal 6xHis tag
# notes: DDX3X helicase core (aa 168–582), 6× histidine tag
# B2: CK1εΔC: CK1ε lacking the C-terminal 112 amino acids, constitutively active (protein, UniProt P49674 1-304, looked up, fragment)
# chain: MELRVGNKYRLGRKIGSGSFGDIYLGANIASGEEVAIKLECVKTKHPQLHIESKFYKMMQGGVGIPSIKWCGAEGDYNVMVMELLGPSLEDLFNFCSRKFSLKTVLLLADQMISRIEYIHSKNFIHRDVKPDNFLMGLGKKGNLVYIIDFGLAKKYRDARTHQHIPYRENKNLTGTARYASINTHLGIEQSRRDDLESLGYVLMYFNLGSLPWQGLKAATKRQKYERISEKKMSTPIEVLCKGYPSEFSTYLNFCRSLRFDDKPDYSYLRQLFRNLFHRQGFSYDYVFDWNMLKFGAARNPEDV
# modifications: His tag
# B3: CK1εΔC^K38R: kinase-dead mutant of CK1εΔC (protein, UniProt P49674 1-416, looked up, variant K38R del305-416)
# Casein kinase I isoform …: B2 chain with K38R
# modifications: His tag
# B4: His-DDX3X^414-582: C-terminal helicase domain of DDX3X (aa 414–582), 6× histidine tag (protein)
# chain: NITQKVVWVEESDKRSFLLDLLNATGKDSLTLVFVETKKGADSLEDFLYHEGYACTSIHGDRSQRDREEALHQFRSGKSPILVATAVAARGLDISNVKHVINFDLPSDIEEYVHRIGRTGRVGNLGLATSFFNERNINITKDLLDLLVEAKQEVPSWLENMAYEHHYKG
# modifications: left off: His, end not stated, kept
# notes: C-terminal helicase domain of DDX3X (aa 414–582), 6× histidine tag
# B5: DDX3X: human DEAD box RNA helicase DDX3X (UniProt O00571) (protein)
# chain: MSHVAVENALGLDQQFAGLDLNSSDNQSGGSTASKGRYIPPHLRNREATKGFYDKDSSGWSSSKDKDAYSSFGSRSDSRGKSSFFSDRGSGSRGRFDDRGRSDYDGIGSRGDRSGFGKFERGGNSRWCDKSDEDDWSKPLPPSERLEQELFSGGNTGINFEKYDDIPVEATGNNCPPHIESFSDVEMGEIIMGNIELTRYTRPTPVQKHAIPIIKEKRDLMACAQTGSGKTAAFLLPILSQIYSDGPGEALRAMKENGRYGRRKQYPISLVLAPTRELAVQIYEEARKFSYRSRVRPCVVYGGADIGQQIRDLERGCHLLVATPGRLVDMMERGKIGLDFCKYLVLDEADRMLDMGFEPQIRRIVEQDTMPPKGVRHTMMFSATFPKEIQMLARDFLDEYIFLAVGRVGSTSENITQKVVWVEESDKRSFLLDLLNATGKDSLTLVFVETKKGADSLEDFLYHEGYACTSIHGDRSQRDREEALHQFRSGKSPILVATAVAARGLDISNVKHVINFDLPSDIEEYVHRIGRTGRVGNLGLATSFFNERNINITKDLLDLLVEAKQEVPSWLENMAYEHHYKGSSRGRSKSSRFSGGFGARDYRQSSGASSSSFSSSRASSSRSGGGGHGSSRGFGGGGYGGFYNSDGYGGNYNSQGVDWWGN
# modifications: left off: Flag, N-terminal, kept
# Key:
# CK1ε = assay: Mass spectrometric detection of DDX3X phosphorylation by CK1ε in vitro; format: biochemical, human; design: key to Probability of phosphorylation, T469 (symbol) / Probability of phosphorylation, S470 (symbol) / Probability of phosphorylation, S429 (symbol): –: no phosphorylation detected; settings: phosphorylated by CK1ε in vitro; tryptic digestion, MS
# Protocol: (§1) Kinase assays were carried out essentially as described ([Cruciat et al., 2013]). For kinase assays, full-length DDX3X protein was expressed and purified from HEK293T cells as described for the ATPase assay. Deletion constructs were purified from E. coli. The eluted proteins were visualized using Coomassie Blue and the intensity of the protein bands was measured using ImageJ. The amounts used for kinase assays were estimated based on this staining. Where indicated, dsRNA was premixed with proteins at room temperature (RT) for 15 min before subjecting samples to radioactive kinase assays. The CK1 substrate peptide […] for the kinase assay and samples was analyzed using p81 phosphocellulose (Biomol) as described ([Zhai et al., 1992]). 0.3 µM CK1δ/ε-derived and control peptides were used ([Schacherl et al., 2015]). For mass spectrometric analyses DDX3X helicase core (His-DDX3X^168-582) as well as the C-terminal helicase domain (His-DDX3X^414-582) were in vitro phosphorylated by CK1ε. Also, reactions without addition of kinase were performed and analyzed in order to correct for false-positive results. Mass spectrometry data acquisition and analysis of trypsin-digested samples were performed at the Core Unit Mass Spectrometry and Proteomics (Ulm University) essentially as described in [Meng et al. (2016)].
# DDX3X = assay: ATPase assay of DDX3X; format: biochemical, human; settings: full-length Flag-DDX3X, dsRNA 17-68 nM, 37°C, 40 min, 1 mM ATP; n=3
# Protocol: For the ATPase assay, Flag-tagged DDX3X full-length constructs were expressed in HEK293T cells. After purifying and eluting DDX3X from the beads, an aliquot of the eluates was resolved by SDS-PAGE in order to monitor the different DDX3X levels via western blotting and ImageJ. Based on this comparison, similar amounts of full-length DDX3X protein were used. Approximately 100 ng Flag-DDX3X protein and 10 ng His-CK1ε were used in a 60 μl reaction mix (reaction buffer: 20 mM Tris-HCl, pH 7.4, 200 mM NaCl, 0.5 mM DTT, 1 mM MgCl2, 1 mM ATP) with dsRNA (17 nM, 34 nM, 68 nM); the reaction was carried out at 37°C for 40 min. To phosphorylate DDX3X, 500 ng His-CK1εΔC or His-CK1εΔC^K38R were added in kinase buffer before eluting the DDX3X protein from the Sepharose magnetic Flag beads (Sigma). Incubation was performed at 37°C for 30 min. Then, beads were washed with 50 mM Tris-HCl, pH 7.5 and 500 mM NaCl before elution with Flag peptide. Termination of the helicase reaction was done with 10 μl of 50% TCA solution added to each reaction followed by centrifugation at 3000 g for 5 min at 4°C. Reaction mix was mixed with coloring solution (35 mM ammonium molybdate, 10 mM zinc acetate, 10% ascorbic acid, pH 5) in a 96-well plate before analysis using a spectrometer (wavelength 700 nm).
# [1] = system: DDX3X-stimulated CK1ε (CK1εΔC); assay: In vitro radioactive kinase assay, DDX3X-stimulated CK1ε activity; format: biochemical, human; settings: recombinant DDX3X, CK1 peptide substrate, radioactive; n=3
# Protocol: as §1
# [2] = system: endogenous CK1 / CK1 sensor in HEK293T cells; assay: CK1 FRET biosensor, microplate reader FRET/CFP ratio; format: cell-based, human; settings: HEK293T, n=3
# Protocol: HEK293T cells were seeded at a density of 20,000 cells/well on 96-well black microplates (PS, μClear, clear bottom, chimney well, Greiner No. 655090). Transfection was performed as described above. Unless indicated otherwise, the respective cell populations were transfected with 50-100 ng CK1 FRET biosensor, 100 ng regulator (i.e. N-Flag DDX3X) and 1-10 ng kinase (i.e. N-Flag CK1ε). Either empty pCS2 N-Flag vector or luciferase were used to transfect the same amount of DNA in every well. Generally, the different samples were run in triplicate for each individual experiment. […]
# Where applicable, the small-molecule CK1 inhibitor D4476 (BioVision) was added to the cells 2-4 h prior to the analysis. […] Analysis was performed 48-60 h after transfection on an Infinite M1000 PRO microplate reader (Tecan) by exciting CFP with a wavelength of 433 nm and measuring the resulting emission at 460-600 nm in 2 nm increments. Fluorometric spectra were background subtracted with spectra recorded from wells with non-transfected cells. Resulting FRET/CFP ratios were calculated by dividing the intensity values at the respective peaks (478 nm for CFP, 528 nm for YFP) and analyzed essentially as described ([Fritz et al., 2013]). […]
# [3] = system: Dvl phosphorylation in HEK293T cells; assay: Dvl phosphorylation shift on Western blot; format: cell-based, human; settings: 50 or 100 ng Flag-DDX3X DNA
molecule,measurement,setting,value
B1,"Probability of phosphorylation, S429",CK1ε,100%
same,"Probability of phosphorylation, S470 (symbol)",CK1ε,–
same,"Probability of phosphorylation, S543",CK1ε,88.7%
same,"Probability of phosphorylation, T469 (symbol)",CK1ε,–
B2,effect of CK1ε protein on RNA-stimulated ATPase activity of DDX3X,DDX3X,much less stimulated by dsRNA
B3,effect of CK1ε protein on RNA-stimulated ATPase activity of DDX3X,DDX3X,still allowed dsRNA stimulation of the ATPase activity
B4,stimulation of CK1ε kinase activity in vitro,[1],sufficient to stimulate CK1ε∆C activity
same,"Probability of phosphorylation, S429 (symbol)",CK1ε,–
same,"Probability of phosphorylation, S470",CK1ε,100%
same,"Probability of phosphorylation, S543",CK1ε,92.7%
same,"Probability of phosphorylation, T469",CK1ε,100%
B5,cooperation of DDX3X with co-expressed CK1 isoforms (FRET/CFP ratio),[2]; CK1 sensor with CK1 isoform,predominantly synergized with limiting amounts of CK1ε rather than with CK1δ and CK1α isoforms
same,effect of co-expressed DDX3X on FRET/CFP ratio of CK1 sensor,[2]; DDX3X without added CK1,not sufficient to significantly enhance endogenous CK1 activity
same,stimulation of Dvl phosphorylation,[3],the wild-type protein alone could not

# — PMC5818060 (Journal of Cell Science, 2018)
